Measured values as given in US20170096478A1, “THERAPEUTIC AGENT FOR INFLAMMATORY DISEASE” (Josai University Corporation, priority 2012, published 2017).

Tests used:
histone H4 = histone H4 (Homo sapiens, UniProt P62805); experiment: ELISA affinity for histone H4; type: binding; settings: absorbance at 405 nm, 5 μg/mL antibody, compared with histone H1
Protocol: (§1) The Affinities between histone H1 or core histone and SSVmAb were determined by ELISA.
(§2) A 96 well microplate was coated with histone H1, H2A, H2B, H3 or H4. Each histone used was dissolved in 100 mM sodium carbonate buffer (pH 9.3). The plate was washed with PBS-tween 20 (0.05%), and blocked with 3% skim milk and 1% BSA for 1 hour. To each well, 5 μg/mL SSVmAb was added, and incubated for 1 hour. Bound SSVmAb was detected using peroxidase (HRP) conjugated anti mouse IgG1 Ab (SIGMA), and incubated for 1 hour. Bound SSVmAb was detected using the ABTS [2,2′-azino-bis(3-ethylbenzothiazoline-sulfonic acid)] substrate solution, and absorbance at 405 nm was measured using Multiskan Ascent (Thermo Fisher Scientific Inc., Waltham, Mass.).
(§3) After the end of the tests, binding assays of SSV mAb with histone H1, histone H3 and histone H4 were carried out by ELISA in the same manner as Test Example 2.

[1] = test system: spleen lymphocytes from a naive DA rat (responsive cells) and from a LEW rat (stimulated cells); experiment: MLR tests (mixed lymphocyte reaction, BrdU incorporation); type: cell-based
Protocol: Spleen lymphocytes from a naive DA rat (responsive cells) and spleen lymphocytes from a LEW rat treated with mitomycin-C (Kyowa Hakko Kogyo Co., Ltd.) (stimulated cells) were used. The responsive cells were adjusted to 5×10^5 cells/mL with 10% FCS-RPMI culture medium, and the stimulated cells were adjusted to 8×10^6 cells/mL with 10% FCS-RPMI culture medium. After plating the responsive cell suspension and the stimulated cell suspension in an amount of 100 μL to a 96 well round-bottom plate (Nunc Brand Products) respectively, the monoclonal antibody 16G9mAb of Reference Example 1 (0.1, 2, 4, or 6 μg/mL/well) or the monoclonal antibody SSVmAb of Example 1 (4 μg/mL/well) was added at the start of mixed culture, and cultured for 3.5 days or longer under the conditions of 37° C., 5% CO2/95% air. In addition, an immunosuppressive agent tacrolimus (FK506: Fujisawa Pharmaceutical Co., Ltd., 1 nM/well) was added as a positive control. Further, 10 μL bromo deoxyuridine (BrdU) was added 15 hours before the end of culture. Then the proliferation potential of the cells treated with the immunosuppressive agent was measured using BrdU labeling & detection kit III (Roche Diagnostics K.K.) using the amount of BrdU incorporated into cellular DNA as an indicator.

histone H1 = experiment: ELISA affinity for histone H1; type: binding; settings: absorbance at 405 nm; 5 μg/mL antibody; compared among histones
Protocol: as §1, §2, §3

B1: SSV mAb: monoclonal antibody (IgG1) produced by Mouse-Mouse hybridoma SSV-C 93-3 (NITE BP-972), raised against peptide … (SEQ ID NO:1)-KLH conjugate (antibody, V domains shown)
VH: EIQLQQSGAELVKPGASVKISCKASGYSFTGYNMNWVKQSHGKSLEWIGNINPYYGSTSYNQKFKGKATLTVDKSSSTAYMQLNSLTSEDSAVYYCARSPYYSNYWRYFDYWGQGTTLTVSS
VL: QIVLSQSPAILSASPGEKVTMTCRASSSVSYMHWYQQKPGSSPKPWIYATSNLASGVPARFSGSGSGTSYSLTISRVEAEDAATYYCQQWSSNPWTFGGGTKLEIK
affinity for histone H4 (ELISA) (histone H4): binding capacity | affinity for histone H4 (ELISA) (histone H4; listed as SSVmAb): higher than the affinity for histone H1 | absorbance which indicates the amount of incorporated BrdU ([1]; 4 μg/mL/well, mean±S.E.): 0.552±0.114 | absorbance (incorporated BrdU) compared with Reference Example 1 (16G9mAb) and tacrolimus (FK506) ([1]; SSVmAb 4 μg/mL/well, FK506 1 nM/well): lower | mean absorbance of Example 1 relative to that of Reference Example 1 ([1]; same amount added, 4 μg/mL/well): about 41% | affinity for histone H1 (ELISA) (histone H1): binding capacity
